Entries after “also recorded” stand apart in the source; their conditions may differ.
How the values were obtained:
[1] = molecular target: T1, FGF23 binding to FGFR1c (Homo sapiens, UniProt P11362+Q9GZV9); assay: Plate-based binding, FGF23 coated, then sKL, heparin or PBS, then Fc-FGFR; settings: with sKL, with heparin 0.4 USP, or alone
T1 construct: Fc-coupled FGFR ectodomains were immobilized on protein A/G beads; purchased R&D Systems 2604FG025/CF or 2629FG025/CF; 658FR050
T1 sequence (Q9GZV9 25-251): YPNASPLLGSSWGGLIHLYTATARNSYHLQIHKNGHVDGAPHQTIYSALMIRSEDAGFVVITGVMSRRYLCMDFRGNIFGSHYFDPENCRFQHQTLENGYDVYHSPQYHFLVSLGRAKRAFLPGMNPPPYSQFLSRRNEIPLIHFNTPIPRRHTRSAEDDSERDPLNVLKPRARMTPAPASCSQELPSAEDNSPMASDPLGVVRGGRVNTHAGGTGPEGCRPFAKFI
T1 sequence (P11362 22-376 limits assumed): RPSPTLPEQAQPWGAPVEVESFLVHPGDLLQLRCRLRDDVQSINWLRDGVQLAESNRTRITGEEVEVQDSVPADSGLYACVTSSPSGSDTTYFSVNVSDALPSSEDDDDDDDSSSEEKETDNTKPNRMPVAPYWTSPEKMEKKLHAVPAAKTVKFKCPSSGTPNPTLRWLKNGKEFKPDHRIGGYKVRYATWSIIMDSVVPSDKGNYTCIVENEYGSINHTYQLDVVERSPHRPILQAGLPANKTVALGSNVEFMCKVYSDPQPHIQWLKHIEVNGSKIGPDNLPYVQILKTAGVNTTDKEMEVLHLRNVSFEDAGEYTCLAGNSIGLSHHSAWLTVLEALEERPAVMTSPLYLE
Experimental: Proteins were coated on 96-well plates (MaxiSorp; 439454, Thermo Fisher Scientific), and proteins were added to wells in 100 μl of enzyme-linked immunosorbent assay (ELISA) coating buffer (E107, Bethyl Laboratories) with a lid placed overtop and incubated at 4° C. overnight. Plates were washed 5× with 350 μl of assay buffer (50 mM Tris [pH 7.4], 200 mM NaCl, 0.01% Tween 20) on a 50 TS microplate washer (BioTek). Plates were blocked for 1 hour in 200 μl of assay buffer with 0.5% BSA. Plates were washed as before, and proteins were incubated on plates in 100 μl of assay buffer with 0.5% BSA. Proteins or heparin was incubated in orders described in the respective figure legends. Assays using FLAG-tag-based detection were incubated with anti-FLAG coupled to HRP at 1:20,000, and assays using Fc detection were incubated with anti-human Fc coupled to HRP at 1:10,000. Plates were washed as above, and 100 μl of 3,3′,5,5′-tetramethylbenzidine (TMB) substrate (E102, Bethyl Laboratories) was added for 15 to 20 minutes until positive wells developed a dark blue color. Reactions were stopped with ELISA stop solution (E115, Bethyl Laboratories) and analyzed using the Synergy HI plate reader (BioTek) at 450 nm wavelength. […] As a control to remove background absorbance values, wells were coated with an equal amount of BSA to match the amount of protein coated in experimental wells and treated the same as experimental wells. To study the effects of sKL on the binding between paracrine FGFs and FGFRs, plates were run as above except coated with paracrine FGFs. Fc-FGFR1 was preincubated with sKL or vehicle for 60 minutes, and then the combination was added to wells and the assay was run as before.

[2] = Serum phosphate and intact FGF23 after sKL injection in rats; format: in vivo, rat; settings: sKL 100 μg/kg tail vein
Experimental: To determine the half-life of recombinant sKL protein in the circulation, rats were injected with the Strep-tagged mouse sKL that was purified as described above. Each group consisted of 3 male Sprague Dawley rats (9 weeks of age and weighing approximately 300 g). For injections and bleeding, rats were anesthetized with 2.5% isoflurane. For injections, a shielded i.v. catheter (BD Insyte Autoguard 0.7×19 mm, catalog no. 381412) was inserted into the lateral tail vein and flushed with 100 μl of isotonic saline (0.9%). One milliliter of purified sKL protein dissolved in isotonic saline (100 μg/kg) or isotonic saline was then injected, and the catheter was flushed again with 100 μl of isotonic saline. For bleeding, a shielded i.v. catheter was inserted into the lateral tail vein. Blood samples (300 μl) were taken after 1, 3, 5, 10, 15, 30, and 60 minutes as well as 3, 6, 12, and 48 hours. For collections from 15 minutes to 48 hours postinjection, a separate i.v. catheter was inserted each time to draw blood. […] Reactions were stopped with ELISA stop solution (E115, Bethyl Laboratories) and analyzed using the Synergy HI plate reader (BioTek) at 450 nm wavelength. Amounts of sKL were calculated by taking the slope of the standard curve and calculating where the sample points fit in.

B1: sKL: recombinant soluble α-klotho ectodomain, mouse aa 35-982 and human aa 34-981, FLAG- or Strep/His-tagged, purified from HEK293 cells (protein)
chain: EPGDGAQTWARFSRPPAPEAAGLFQGTFPDGFLWAVGSAAYQTEGGWQQHGKGASIWDTFTHHPLAPPGDSRNASLPLGAPSPLQPATGDVASDSYNNVFRDTEALRELGVTHYRFSISWARVLPNGSAGVPNREGLRYYRRLLERLRELGVQPVVTLYHWDLPQRLQDAYGGWANRALADHFRDYAELCFRHFGGQVKYWITIDNPYVVAWHGYATGRLAPGIRGSPRLGYLVAHNLLLAHAKVWHLYNTSFRPTQGGQVSIALSSHWINPRRMTDHSIKECQKSLDFVLGWFAKPVFIDGDYPESMKNNLSSILPDFTESEKKFIKGTADFFALCFGPTLSFQLLDPHMKFRQLESPNLRQLLSWIDLEFNHPQIFIVENGWFVSGTTKRDDAKYMYYLKKFIMETLKAIKLDGVDVIGYTAWSLMDGFEWHRGYSIRRGLFYVDFLSQDKMLLPKSSALFYQKLIEKNGFPPLPENQPLEGTFPCDFAWGVVDNYIQVDTTLSQFTDLNVYLWDVHHSKRLIKVDGVVTKKRKSYCVDFAAIQPQIALLQEMHVTHFRFSLDWALILPLGNQSQVNHTILQYYRCMASELVRVNITPVVALWQPMAPNQGLPRLLARQGAWENPYTALAFAEYARLCFQELGHHVKLWITMNEPYTRNMTYSAGHNLLKAHALAWHVYNEKFRHAQNGKISIALQADWIEPACPFSQKDKEVAERVLEFDIGWLAEPIFGSGDYPWVMRDWLNQRNNFLLPYFTEDEKKLIQGTFDFLALSHYTTILVDSEKEDPIKYNDYLEVQEMTDITWLNSPSQVAVVPWGLRKVLNWLKFKYGDLPMYIISNGIDDGLHAEDDQLRVYYMQNYINEALKAHILDGINLCGYFAYSFNDRTAPRFGLYRYAADQFEPKASMKHYRKIIDSNGFPGPETLERFCPEEFTVCTECSFFHTRKS
modifications: left off: small tags and cut ends
notes: recombinant soluble α-klotho ectodomain, mouse aa 35-982 and human aa 34-981, FLAG- or Strep/His-tagged, purified from HEK293 cells
binding of coated FGF23 to Fc-FGFR1c [1]: highest FGF23-sKL affinities; also recorded: increased; also recorded: the strongest
serum phosphate levels ([2]; serial bleeds): not significantly altered
serum intact FGF23 levels ([2]; serial bleeds incl. 48 hours): increases in serum concentrations of FGF23; also recorded: significantly elevated

— patent US20240384250A1, “FIBROBLAST GROWTH FACTOR 23 MODULATING COMPOUNDS” (THE UAB RESEARCH FOUNDATION, priority 2021, published 2024)
